Measured values: PMC6639382, “Structural mechanism of synergistic activation of Aurora kinase B/C by phosphorylated INCENP” (Nature Communications, 2019)

What was measured:
[1] = biological target: T1, Aurora kinase B (AURKB) (Homo sapiens, UniProt Q96GD4); experiment: isothermal titration calorimetry; BLI kinetics (slow off-rate); assay type: binding
T1 construct: kinase domain co-expressed with INCENP residues 835–903; with INCENP (residues 835–903)

[2] = biological target: T2, Aurora kinase C (AURKC) (Homo sapiens, UniProt Q9UQB9); experiment: co-crystal structure ([…] Å); assay type: binding
T2 construct: residues 36–305 of AURKC isoform 1; with INCENP (residues 835–903, phosphorylated on Ser893 and Ser894)

[3] = biological target: T3, Aurora kinase A (AURKA) (Homo sapiens, UniProt O14965); experiment: crystal structure ([…] Å) and isothermal titration calorimetry; assay type: binding
T3 construct: residues 122–403
T3 sequence (O14965 122-403): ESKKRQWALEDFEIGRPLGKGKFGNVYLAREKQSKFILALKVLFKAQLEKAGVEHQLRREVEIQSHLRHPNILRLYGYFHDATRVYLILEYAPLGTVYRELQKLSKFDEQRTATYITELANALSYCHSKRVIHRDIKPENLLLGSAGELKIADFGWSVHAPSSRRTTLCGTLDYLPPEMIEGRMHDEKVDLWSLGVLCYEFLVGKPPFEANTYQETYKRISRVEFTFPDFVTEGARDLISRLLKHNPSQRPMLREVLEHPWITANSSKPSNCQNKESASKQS

[4] = biological target: T4, Aurora kinase C kinase domain (truncation not stated for this experiment), phosphorylated (human)
T4 sequence (Q9UQB9 whole entry, looked up): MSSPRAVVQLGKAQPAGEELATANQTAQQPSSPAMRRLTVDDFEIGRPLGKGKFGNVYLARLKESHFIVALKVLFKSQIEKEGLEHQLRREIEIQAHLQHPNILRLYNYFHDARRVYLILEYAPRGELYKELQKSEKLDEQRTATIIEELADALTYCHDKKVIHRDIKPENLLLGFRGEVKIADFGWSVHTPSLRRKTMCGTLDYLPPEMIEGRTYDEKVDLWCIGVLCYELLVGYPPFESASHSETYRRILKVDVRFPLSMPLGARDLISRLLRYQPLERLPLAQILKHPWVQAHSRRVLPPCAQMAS

[5] = biological target: T4, Aurora kinase C kinase domain (truncation not stated for this experiment), phosphorylated (human); experiment: native MS; native nano-ESI ion mobility-mass spectrometry of the co-purified complexes, 250 mM ammonium acetate, ca. 10 µM, gentle ionisation conditions
[6] = biological target: T5, Aurora kinase C kinase domain (truncation not stated for this experiment), phosphorylated; experiment: native mass spectrometry (native ESI-MS); conditions: chain shown with the change; concentration of ca. 10 µM; same gentle ionisation conditions; parent: 0
T5 chain: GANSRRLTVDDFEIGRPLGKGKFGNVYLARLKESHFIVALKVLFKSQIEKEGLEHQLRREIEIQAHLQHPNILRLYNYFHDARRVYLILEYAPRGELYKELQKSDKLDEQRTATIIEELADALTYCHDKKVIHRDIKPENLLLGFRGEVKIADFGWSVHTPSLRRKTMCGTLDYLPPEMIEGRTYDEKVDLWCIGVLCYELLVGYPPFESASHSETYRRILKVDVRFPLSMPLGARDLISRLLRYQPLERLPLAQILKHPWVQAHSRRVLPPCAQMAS

T2 sequence (Q9NQS7 835-903 partner, one chain of several): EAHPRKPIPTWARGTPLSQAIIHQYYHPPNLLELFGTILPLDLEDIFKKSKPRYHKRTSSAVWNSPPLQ
T1 sequence (Q96GD4 77-327 limits assumed): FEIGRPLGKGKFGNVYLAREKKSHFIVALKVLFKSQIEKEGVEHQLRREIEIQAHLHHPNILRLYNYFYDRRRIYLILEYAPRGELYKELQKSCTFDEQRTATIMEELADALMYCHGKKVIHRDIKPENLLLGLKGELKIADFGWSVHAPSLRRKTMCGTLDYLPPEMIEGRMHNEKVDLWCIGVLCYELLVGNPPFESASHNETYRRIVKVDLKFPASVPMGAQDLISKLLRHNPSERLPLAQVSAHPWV
T1 sequence (Q9NQS7 835-903 partner): as the sequence (Q9NQS7 835-903 partner, one chain of several) above

## COc1ccc(NC(=O)Nc2ccc3c(c2)C(=O)N([C@@H](C)CO)C[C@H](C)[C@H](CN(C)Cc2ccc4c(c2)OCO4)O3)cc1 [BRD-7880]
[1]
  Kd: 16 nM
[2]
  co-crystal structure (1.75 Å): The co-crystal structure with AURKC:INCENP reveals a completely ordered BRD-7880 molecule (Fig. 5a) which binds in the ATP-binding site
[3]
  Kd: 341 nM

## INCENP IN-box (residues 835–903) S893A (from UniProt Q9NQS7-1 835-903) (domain or fragment)
[4]
  Kcat of the AURKC:INCENP complex on a peptide substrate: 46300
  Km(peptide) of the AURKC:INCENP complex: 83 µM

## INCENP IN-box (residues 835–903) S894A (from UniProt Q9NQS7-1 835-903) (domain or fragment)
[4]
  Kcat of the AURKC:INCENP complex on a peptide substrate: 38800 s⁻¹
  Km(peptide) of the AURKC:INCENP complex: 83 µM

## INCENP IN-box (residues 835–903) W897A (from UniProt Q9NQS7-1 835-903) (domain or fragment)
[4]
  Kcat of the AURKC:INCENP complex on a peptide substrate: 41800
  Km(peptide) of the AURKC:INCENP complex: 25.1 µM

## INCENP IN-box (residues 835–903), phosphorylated on the TSS motif (from UniProt Q9NQS7-1 835-903) (domain or fragment)
[5]
  % complex formed: 100%
[4]
  Kcat of the AURKC:INCENP complex on a peptide substrate: 48800
  Km(peptide) of the AURKC:INCENP complex: 18.7 µM

B1: INCENP IN-box (residues 835–903), phosphorylated on the TSS motif, Q9NQS7-1 S893A; S894A; W897A (protein)
chain: MEAHPRKPIPTWARGTPLSQAIIHQYYHPPNLLELFGTILPLDLEDIFKKSKPRYHKRTAAAVANSPPLQ
[6]
  other: % unbound AURKC (% unbound AURKC): 40
